# Measured values from IntAct's records for PubMed 18477474.
# B1: Ras-related protein Rab-38 (Mus musculus), Q8QZZ8 (parent)
# chain: MQTPHKEHLYKLLVIGDLGVGKTSIIKRYVHQNFSSHYRATIGVDFALKVLHWDPETVVRLQLWDIAGQERFGNMTRVYYREAMGAFIVFDVTRPATFEAVAKWKNDLDSKLTLPNGKPVSVVLLANKCDQGKDVLMNNGLKMDQFCKEHGFVGWFETSAKENINIDEASRCLVKHILANECDLLESIEPDIVKPHLTSPKVVSCSGCAKS
# partner: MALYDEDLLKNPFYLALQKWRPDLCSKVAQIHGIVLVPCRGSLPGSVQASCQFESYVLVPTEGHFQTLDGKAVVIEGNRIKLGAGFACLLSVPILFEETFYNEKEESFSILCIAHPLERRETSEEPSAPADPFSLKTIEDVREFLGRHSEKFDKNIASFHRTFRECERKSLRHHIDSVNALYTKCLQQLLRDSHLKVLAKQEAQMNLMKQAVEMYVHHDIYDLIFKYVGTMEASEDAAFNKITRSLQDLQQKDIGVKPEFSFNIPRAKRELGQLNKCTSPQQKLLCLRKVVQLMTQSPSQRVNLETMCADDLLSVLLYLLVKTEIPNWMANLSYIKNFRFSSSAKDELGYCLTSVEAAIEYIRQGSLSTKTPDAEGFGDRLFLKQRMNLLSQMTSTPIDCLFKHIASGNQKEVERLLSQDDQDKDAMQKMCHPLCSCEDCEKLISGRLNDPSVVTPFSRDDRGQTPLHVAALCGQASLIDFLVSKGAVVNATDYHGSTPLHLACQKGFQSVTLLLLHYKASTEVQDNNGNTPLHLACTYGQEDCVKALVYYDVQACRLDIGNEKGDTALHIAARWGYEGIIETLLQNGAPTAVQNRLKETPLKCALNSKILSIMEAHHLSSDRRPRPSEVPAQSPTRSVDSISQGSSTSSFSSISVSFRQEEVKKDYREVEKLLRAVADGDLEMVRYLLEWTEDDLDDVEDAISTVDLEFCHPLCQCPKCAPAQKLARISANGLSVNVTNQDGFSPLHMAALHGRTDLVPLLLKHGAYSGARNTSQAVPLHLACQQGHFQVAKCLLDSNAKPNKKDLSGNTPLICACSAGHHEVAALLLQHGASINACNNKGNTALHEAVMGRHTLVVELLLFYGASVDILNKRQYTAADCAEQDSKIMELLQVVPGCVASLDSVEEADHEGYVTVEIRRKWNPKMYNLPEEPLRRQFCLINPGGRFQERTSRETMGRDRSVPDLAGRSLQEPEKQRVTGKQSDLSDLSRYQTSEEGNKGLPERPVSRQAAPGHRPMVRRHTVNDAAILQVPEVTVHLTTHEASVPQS
# Variants of: B1
# Settings: with anr27_mouse Ankrd27, Q3UMR0
row,Variant,effect of a mutation on the interaction
1,T23N,disrupting interaction
